US20120316071A1 (published 2012)

What was measured:
[1] = molecular target: T1, Recombinant Human DLL4 (R&D Systems Cat#1506-D4/CF) (human, UniProt Q9NR61 27-524); assay: MSD ECL multispot assay, antigen spotted on plate, Fab in solution; blank spot of this row 277
T1 construct: Bought recombinant protein; also called delta-like protein 4; rHuman DLL4

[2] = molecular target: T2, rHuman HGF R/c-MET/Fc Chimera, CF (R&D Systems Cat#358-MT/CF) (human, UniProt P08581 25-932); assay: as above
T2 construct: Bought recombinant protein; also called HGF R/Fc; not shown: Fc of the bought chimera

[3] = molecular target: T3, rHuman EGF R/Fc Chimera, CF (R&D Systems Cat#344-ER) (human, UniProt P00533 25-645); assay: as above
T3 construct: Bought recombinant protein; not shown: Fc of the bought chimera

[4] = molecular target: T4, rHuman IGF-1 sR (insulin-like growth factor-1 soluble receptor), CF (R&D Systems Cat#391-GR) (human, UniProt P08069 31-932); assay: as above
T4 construct: Bought recombinant soluble receptor

[5] = molecular target: T5, rHuman P-Cadherin/Fc Chimera, CF (R&D Systems Cat#861-PC) (human, UniProt P22223 108-654); assay: as above
T5 construct: Bought recombinant protein; not shown: Fc of the bought chimera

[6] = molecular target: T6, rHuman ErbB2/Fc Chimera, CF (R&D Systems Cat#1129-ER) (human, UniProt P04626 23-652); assay: as above
T6 construct: Bought recombinant protein; not shown: Fc of the bought chimera

[7] = molecular target: T1, Recombinant Human DLL4 (R&D Systems …); assay: MSD ECL multispot assay, antigen spotted on plate, Fab in solution; blank spot of this row 274
[8] = molecular target: T2, rHuman HGF R/c-MET/Fc Chimera, CF (R&D …); assay: as above
[9] = molecular target: T3, rHuman EGF R/Fc Chimera, CF (R&D …); assay: as above
[10] = molecular target: T4, rHuman IGF-1 sR (insulin-like growth …); assay: as above
[11] = molecular target: T5, rHuman P-Cadherin/Fc Chimera, CF (R&D …); assay: as above
[12] = molecular target: T6, rHuman ErbB2/Fc Chimera, CF (R&D …); assay: as above
[13] = molecular target: T1, Recombinant Human DLL4 (R&D Systems …); assay: MSD ECL multispot assay, antigen spotted on plate, Fab in solution; blank spot of this row 282
[14] = molecular target: T2, rHuman HGF R/c-MET/Fc Chimera, CF (R&D …); assay: as above
[15] = molecular target: T3, rHuman EGF R/Fc Chimera, CF (R&D …); assay: as above
[16] = molecular target: T4, rHuman IGF-1 sR (insulin-like growth …); assay: as above
[17] = molecular target: T5, rHuman P-Cadherin/Fc Chimera, CF (R&D …); assay: as above
[18] = molecular target: T6, rHuman ErbB2/Fc Chimera, CF (R&D …); assay: as above
[19] = molecular target: T2, rHuman HGF R/c-MET/Fc Chimera, CF (R&D …); assay: MSD ECL multispot assay, antigen spotted on plate, Fab in solution; blank spot of this row 255
[20] = molecular target: T3, rHuman EGF R/Fc Chimera, CF (R&D …); assay: as above
[21] = molecular target: T4, rHuman IGF-1 sR (insulin-like growth …); assay: as above
[22] = molecular target: T7, rHuman Notch-1/Fc Chimera, CF (R&D Systems Cat#3647-TK) (human, UniProt P46531 19-526); assay: as above
T7 construct: Bought recombinant protein; not shown: Fc of the bought chimera

[23] = molecular target: T5, rHuman P-Cadherin/Fc Chimera, CF (R&D …); assay: as above
[24] = molecular target: T8, rHuman Erythropoietin R/Fc Chimera, CF (R&D Systems Cat#963-ER) (human, UniProt P19235 25-250); assay: as above
T8 construct: Bought recombinant protein; also called EPO R; EPO R/Fc; not shown: Fc of the bought chimera
T8 sequence (looked up): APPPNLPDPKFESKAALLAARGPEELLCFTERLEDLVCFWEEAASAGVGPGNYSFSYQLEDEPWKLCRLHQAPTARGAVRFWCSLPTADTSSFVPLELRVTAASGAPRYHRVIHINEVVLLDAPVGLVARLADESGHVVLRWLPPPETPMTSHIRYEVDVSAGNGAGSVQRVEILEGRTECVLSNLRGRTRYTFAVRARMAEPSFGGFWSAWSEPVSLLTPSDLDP

[25] = molecular target: T6, rHuman ErbB2/Fc Chimera, CF (R&D …); assay: as above
[26] = molecular target: T9, rHuman CD44/Fc Chimera, CF (R&D Systems Cat#3660-CD) (human, UniProt P16070 21-220); assay: as above
T9 construct: Bought recombinant protein; not shown: Fc of the bought chimera

[27] = molecular target: T2, rHuman HGF R/c-MET/Fc Chimera, CF (R&D …); assay: MSD ECL multispot assay, antigen spotted on plate, Fab in solution; blank spot of this row 317
[28] = molecular target: T3, rHuman EGF R/Fc Chimera, CF (R&D …); assay: as above
[29] = molecular target: T4, rHuman IGF-1 sR (insulin-like growth …); assay: as above
[30] = molecular target: T7, rHuman Notch-1/Fc Chimera, CF (R&D …); assay: as above
[31] = molecular target: T5, rHuman P-Cadherin/Fc Chimera, CF (R&D …); assay: as above
[32] = molecular target: T8, rHuman Erythropoietin R/Fc Chimera, CF …; assay: as above
[33] = molecular target: T6, rHuman ErbB2/Fc Chimera, CF (R&D …); assay: as above
[34] = molecular target: T9, rHuman CD44/Fc Chimera, CF (R&D Systems …); assay: as above

T2 sequence (P08581 25-932, change not shown): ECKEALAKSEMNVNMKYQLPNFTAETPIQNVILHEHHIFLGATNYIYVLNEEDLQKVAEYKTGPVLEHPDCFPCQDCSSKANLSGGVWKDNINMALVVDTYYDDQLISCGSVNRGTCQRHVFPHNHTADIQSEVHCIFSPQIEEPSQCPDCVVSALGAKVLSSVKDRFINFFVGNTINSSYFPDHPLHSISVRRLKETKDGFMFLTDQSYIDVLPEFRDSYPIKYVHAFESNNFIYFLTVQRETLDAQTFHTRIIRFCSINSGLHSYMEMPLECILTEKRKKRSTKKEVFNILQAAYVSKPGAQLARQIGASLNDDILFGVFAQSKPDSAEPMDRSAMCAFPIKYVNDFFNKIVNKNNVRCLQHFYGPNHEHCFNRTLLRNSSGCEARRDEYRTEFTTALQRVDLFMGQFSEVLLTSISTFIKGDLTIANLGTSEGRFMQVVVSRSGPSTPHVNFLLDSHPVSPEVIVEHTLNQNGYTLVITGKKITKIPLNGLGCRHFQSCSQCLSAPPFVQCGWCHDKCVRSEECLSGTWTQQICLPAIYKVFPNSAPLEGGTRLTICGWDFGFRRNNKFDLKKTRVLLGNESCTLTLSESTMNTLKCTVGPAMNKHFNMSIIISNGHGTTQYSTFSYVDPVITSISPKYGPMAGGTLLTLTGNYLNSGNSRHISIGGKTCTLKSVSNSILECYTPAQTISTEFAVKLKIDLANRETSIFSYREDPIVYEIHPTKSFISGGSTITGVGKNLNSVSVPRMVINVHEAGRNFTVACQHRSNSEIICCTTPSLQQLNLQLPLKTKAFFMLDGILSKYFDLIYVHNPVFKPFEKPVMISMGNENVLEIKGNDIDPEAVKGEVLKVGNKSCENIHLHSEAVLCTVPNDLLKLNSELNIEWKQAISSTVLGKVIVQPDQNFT

B1: Fab VH1-46_IGHD6-6*01_IGHJ1*01 S102A/S103P/S104F/H111F (APFF) & L6_IGKJ1*01 (Fab, V domains shown)
VH: QVQLVQSGAEVKKPGASVKVSCKASGYTFTSYYMHWVRQAPGQGLEWMGIINPSGGSTSYAQKFQGRVTMTRDTSTSTVYMELSSLRSEDTAVYYCAREEYAPFSAEYFQFWGQGTLVTVSS
VL: not shown
notes: Fab; also called APFF / parent; H:APFF & L:wt
ECL signal [1]: 165000
ECL signal [2]: 267
ECL signal [3]: 307
ECL signal [4]: 221
ECL signal [5]: 299
ECL signal [6]: 311
ECL signal [7]: 164000
ECL signal [8]: 339
ECL signal [9]: 266
ECL signal [10]: 305
ECL signal [11]: 283
ECL signal [12]: 236
ECL signal [13]: 165000
ECL signal [14]: 321
ECL signal [15]: 290
ECL signal [16]: 249
ECL signal [17]: 302
ECL signal [18]: 259

B2: Fab VH1-46_IGHD6-6*01_IGHJ1*01 S102A/S103P/S104F/H111F (APFF) & L6_IGKJ1*01 S92Q (Fab, V domains shown)
VH: QVQLVQSGAEVKKPGASVKVSCKASGYTFTSYYMHWVRQAPGQGLEWMGIINPSGGSTSYAQKFQGRVTMTRDTSTSTVYMELSSLRSEDTAVYYCAREEYAPFSAEYFQFWGQGTLVTVSS
VL: EIVLTQSPATLSLSPGERATLSCRASQSVSSYLAWYQQKPGQAPRLLIYDASNRATGIPARFSGSGSGTDFTLTISSLEPEDFAVYYCQQRQNWPPWTFGQGTKVEIKR
notes: Fab; also called APFF / S92Q
ECL signal [19]: 373
ECL signal [20]: 332
ECL signal [21]: 246
ECL signal [22]: 351
ECL signal [23]: 340
ECL signal [24]: 330
ECL signal [25]: 282
ECL signal [26]: 312

B3: Fab VH1-46_IGHD6-6*01_IGHJ1*01 S102A/S103P/S104F/H111F (APFF) & L6_IGKJ1*01 S92V (Fab, V domains shown)
VH: QVQLVQSGAEVKKPGASVKVSCKASGYTFTSYYMHWVRQAPGQGLEWMGIINPSGGSTSYAQKFQGRVTMTRDTSTSTVYMELSSLRSEDTAVYYCAREEYAPFSAEYFQFWGQGTLVTVSS
VL: EIVLTQSPATLSLSPGERATLSCRASQSVSSYLAWYQQKPGQAPRLLIYDASNRATGIPARFSGSGSGTDFTLTISSLEPEDFAVYYCQQRVNWPPWTFGQGTKVEIKR
notes: Fab; also called APFF / S92V
ECL signal [27]: 230
ECL signal [28]: 319
ECL signal [29]: 244
ECL signal [30]: 262
ECL signal [31]: 373
ECL signal [32]: 371
ECL signal [33]: 188
ECL signal [34]: 248
